The results in this text go back to patent US20030092037A1, “Elk1 phosphorylation related gene” (priority 2001, published 2003).

This assay relates to MAP kinase cascade activation. As to the kind of experiment: Reporter activity reflecting MAP kinase cascade activation, corrected using an internal control (Elk1-GAL4 luciferase reporter in 293-EBNA cells). It is filed as cell-based, human. The settings on record: for Reporter activity corrected with internal control, as a factor of null vector (S/B value): 293-EBNA cells, 24 hours; for Dependence of corrected reporter activity on amount of expression plasmid: plasmid 12.5 ng, 25 ng, 50 ng and 100 ng. How it is done: (in the presence of 5% CO2). […] The method used for introduction was in accordance with the attached protocol. After culturing for 24 hours at 37° C., reporter activity (firefly luciferase acitivity), which reflects MAP kinase cascade activation, and reporter activity being the internal control (sea pansy luciferase) were measured using Picagene Dual (purchased from Toyo Ink Manufacturing) in accordance with the manufacturer's instructions.
Luciferase activity was measured with Perkin Elmer's Wallac ARVOTMST 1420 MULTILABEL COUNTER.
Reporter activity where an expression plasmid comprising the above gene was introduced, which reflects MAP kinase cascade activation corrected with internal control reporter activity, is shown in Table 1, which is expressed as a factor of the same reporter activity where a null vector was introduced (S/B value).
On the technique in general: Reporter assays use an easily measured gene product as a stand-in for the process of interest.

The mark [1] stands for this setting: 12.5 ng/well expression plasmid.

B1: 116 (protein, listed as Mus musculus)
chain: MSSAKSARYDRFSGGPANLPSSDSSGTRMETTFGPTFSTVTTITKAADGTGTYKQHRRTPSSSSTLAYSPRDEEDGMEPLVFAEQPSVKLCCQLCCSVFKDPVITTCGHTFCRRCALKSEKCPVDNAKLTVVVNNIAVAEQIGELFIHCRHGCHAAGTGKPGVFEVDPRGCPFTIKLSARKDHESSCDYRPVRCPNNPSCPPLLKMNLEAHLKECEHIKCPHSKYGCTFIGNQDTYETHLETCRFEGLKEFLQQSDDRFHEMHVALAQKDQEIAFLRSMLGKLSEKINQLEKSLELKFDVLDENQSKLSEDLMEFRRDASMLNDELSHINARLNMGILGSYDPQQIFKCKGTFVGHQGPVWCLCVYSMGDLLFSGSSDKTIKVWDTCTTYKCQKTLEGHDGIVLALCIQGCKLYSGSADCTIIVWDIQNLQKVNTIRAHDNPVCTLVSSHNMLFSGSLKAIKVWDIVGTELKLKKELTGLNHWVRALVAAQSYLYSGSYQTIKIWDIRTLDCIHVLQTSGGSVYSIAVTNHHIVCGTYENLIHVWDIESKEQVRTLTGHVGTVYALAVISTPDQTKVFSASYDRSLRVWSMDNMICTQTLLRHQGSVTALAVSRGRLFSGAVDSTVKVWTC
Regarding B1, the “Dependence of corrected reporter activity on amount of expression plasmid” value (“Dependence” below) is “increases that were dependent on the amount of expression plasmid”. For the same molecule, under setting [1], the “Reporter activity corrected with internal control, as a factor of null vector (S/B value)” value (“Reporter activity corrected” for short) is recorded as 11.9. Further, the “Reporter activity corrected” value (25 ng/well expression plasmid) is listed as 17.3. Besides, the “Reporter activity corrected” value (50 ng/well expression plasmid) was 19.9.

B2: 110 (protein, listed as Homo sapiens)
chain: MERPLCSHLCSCLAMLALLSPLSLAQYDSWPHYPEYFQQPAPEYHQPQAPANVAKIQLRLAGQKRKHSEGRVEVYYDGQWGTVCDDDFSIHAAHVVCRELGYVEAKSWTASSSYGKGEGPIWLDNLHCTGNEATLAACTSNGWGVTDCKHTEDVGVVCSDKRIPGFKFDNSLINQIENLNIQVEDIRIRAILSTYRKRTPVMEGYVEVKEGKTWKQICDKHWTAKNSRVVCGMFGFPGERTYNTKVYKMFASRRKQRYWPFSMDCTGTEAHISSCKLGPQVSLDPMKNVTCENGLPAVVSCVPGQVFSPDGPSRFRKAYKPEQPLVRLRGGAYIGEGRVEVLKNGEWGTVCDDKWDLVSASVVCRELGFGSAKEAVTGSRLGQGIGPIHLNEIQCTGNEKSIIDCKFNAESQGCNHEEDAGVRCNTPAMGLQKKLRLNGGRNPYEGRVEVLVERNGSLVWGMVCGQNWGIVEAMVVCRQLGLGFASNAFQETWYWHGDVNSNKVVMSGVKCSGTELSLAHCRHDGEDVACPQGGVQYGAGVACSETAPDLVLNAEMVQQTTYLEDRPMFMLQCAMEENCLSASAAQTDPTTGYRRLLRFSSQIHNNGQSDFRPKNGRHAWIWHDCHRHYHSMEVFTHYDLLNLNGTKVAEGHKASFCLEDTECEGDIQKNYECANFGDQGITMGCWDMYRHDIDCQWVDITDVPPGDYLFQVVINPNFEVAESDYSNNIMKCRSRYDGHRIWMYNCHIGGSFSEETEKKFEHFSGLLNNQLSPQ
On to B2, for which the “Dependence” value is listed as “increases that were dependent on the amount of expression plasmid”. In addition, the “Reporter activity corrected” value under setting [1] was determined as 2.3. Besides, the “Reporter activity corrected” value (25 ng/well expression plasmid) is 3.4. Where the note is “50 ng/well expression plasmid”, the “Reporter activity corrected” value is 4.7.

B3: 44 (protein, listed as Homo sapiens)
chain: MEDEEVAESWEEAADSGEIDRRLEKKLKITQKESRKSKSPPKVPIVIQDDSLPAGPPPQIRILKRPTSNGVVSSPNSTSRPTLPVKSLAQREAEYAEARKRILGSASPEEEQEKPILDRPTRISQPEDSRQPNNVIRQPLGPDGSQGFKQRR
For the molecule B3, the “Dependence” value was “increases that were dependent on the amount of expression plasmid”. Also, the “Reporter activity corrected” value (25 ng/well expression plasmid) is given as 9.1. Moreover, under “50 ng/well expression plasmid”, the “Reporter activity corrected” value came to 55.4. Also, where the note is “100 ng/well expression plasmid”, the “Reporter activity corrected” value stood at 64.5.

B4: 112 (protein, listed as Homo sapiens)
chain: METTFGPAFSAVTTITKADGTSTYKQHCRTPSSSSTLAYSPRDEEDSMPPISTPRRSDSAISVRSLHSESSMSLRSTFSLPEEEEEPEPLVFAEQPSVKLCCQLCCSVFKDPVITTCGHTFCRRCALKSEKCPVDNVKLTVVVNNIAVAEQIGELFIHCRHGCRVAGSGKPPIFEVDPRGCPFTIKLSARKDHEGSCDYRPVRCPNNPSCPPLLRMNLEAHLKECEHIKCPHSKYGCTFIGNQDTYETHLETCRFEGLKEFLQQTDDRFHEMHVALAQKDQEIAFLRSMLGKLSEKIDQLEKSLELKFDVLDENQSKLSEDLMEFRRDASMLNDELSHINARLNMGILGSYDPQQIFKCKGTFVGHQGPVWCLCVYSMGDLLFSGSSDKTIKVWDTCTTYKCQKTLEGHDGIVLALCIQGCKLYSGSADCTIIVWDIQNLQKVNTIRAHDNPVCTLVSSHNVLFSGSLKAIKVWDIVGTELKLKKELTGLNHWVRALVAAQSYLYSGSYQTIKIWDIRTLDCIHVLQTSGGSVYSIAVTNHHIVCGTYENLIHVWDIESKEQVRTLTGHVGTVYALAVISTPDQTKVFSASYDRSLRVWSMDNMICTQTLLRHQGSVTALAVSRGRLFSGAVDSTVKVWTC
As to B4, the “Dependence” value is recorded as “increases that were dependent on the amount of expression plasmid”. In addition, under setting [1], the “Reporter activity corrected” value came to 7.6. In addition, the “Reporter activity corrected” value (25 ng/well expression plasmid) came to 2.2. The “Reporter activity corrected” value (50 ng/well expression plasmid) is 3.1.

B5: 50 (protein, listed as Homo sapiens)
chain: MAKERRRAVLELLQRPGNARCADCGAPDPDWASYTLGVFICLSCSGIHRNIPQVSKVKSVRLDAWEEAQVEFMASHGNDAARARFESKVPSFYYRPTPSDCQLLREQWIRAKYERQEFIYPEKQEPYSAGYREGFLWKRGRDNGQFLSRKFVLTEREGALKYFNRNDAKEPKAVMKIEHLNATFQPAKIGHPHGLQVTYLKDNSTRNIFIYHEDGKEIVDWFNALRAARFHYLQVAFPGASDADLVPKLSRNYLKEGYMEKTGPKQTEGFRKRWFTMDDRRLMYFKDPLDAFARGEVFIGSKESGYTVLHGFPPSTQGHHWPHGITIVTPDRKFLFACETESDQREWVAAFQKAVDRPMLPQEYAVEAHFKHKP
In the case of B5, the “Dependence” value is recorded as “increases that were dependent on the amount of expression plasmid”. The “Reporter activity corrected” value (25 ng/well expression plasmid) is given as 2.3. In addition, the “Reporter activity corrected” value (50 ng/well expression plasmid) is 4.3. The “Reporter activity corrected” value (100 ng/well expression plasmid) is 3.8.

B6: 4 (protein, listed as Homo sapiens)
chain: MSHEKSFLVSGDNYPPPNPGYPGGPQPPMPPYAQPPYPGAPYPQPPFQPSPYGQPGYPHGPSPYPQGGYPQGPYPQGGYPQGPYPQEGYPQGPYPQGGYPQGPYPQSPFPPNPYGQPQVFPGQDPDSPQHGNYQEEGPPSYYDNQDFPATNWDDKSIRQAFIRKVFLVLTLQLSVTLSTVSVFTFVAEVKGFVRENVWTYYVSYAVFFISLIVLSCCGDFRRKHPWNLVALSVLTASLSYMVGMIASFYNTEAVIMAVGITTAVCFTVVIFSMQTRYDFTSCMGVLLVSMVVLFIFAILCIFIRNRILEIVYASLGALLFTCFLAVDTQLLLGNKQLSLSPEEYVFAALNLYTDIINIFLYILTIIGRAKE
For B6, the “Dependence” value is listed as “increases that were dependent on the amount of expression plasmid”. In addition, for the setting “25 ng/well expression plasmid”, the “Reporter activity corrected” value turned out to be 2.1. Moreover, the “Reporter activity corrected” value (50 ng/well expression plasmid) is recorded as 4.1. The “Reporter activity corrected” value (100 ng/well expression plasmid) is reported as 4.5.

B7: 52 (protein, listed as Homo sapiens)
chain: MAASRLELNLVRLLSRCEAMAAEKRDPDEWRLEKYVGALEDMLQALKVHASKPASEVINEYSWKVDFLKGMLQAEKLTSSSEKALANQFLAPGRVPTTARERVPATKTVHLQSRARYTSEMRSELLGTDSAEPEMDVRKRTGVAGSQPVSEKQSAAELDLVLQRHQNLQEKLAEEMLGLARSLKTNTLAAQSVIKKDNQTLSHSLKMADQNLEKLKTESERLEQHTQKSVNWLLWAMLIIVCFIFISMILFIRIMPKLK
Take B7: the “Dependence” value was “increases that were dependent on the amount of expression plasmid”. Moreover, the “Reporter activity corrected” value (25 ng/well expression plasmid) is reported as 2.3. Under “50 ng/well expression plasmid”, the “Reporter activity corrected” value is on record as 3.6. Besides, the “Reporter activity corrected” value (100 ng/well expression plasmid) stood at 5.4.

B8: 60 (protein, listed as Homo sapiens)
chain: MLGSGFKAERLRVNLRLVINRLKLLEKKKTELAQKARKEIADYLAAGKDERARIRVEHIIREDYLVEAMEILELYCDLLLARFGLIQSMKELDSGLAESVSTLIWAAPRLQSEVAELKIVADQLCAKYSKEYGKLCRTNQIGTVNDRLMHKLSVEAPPKILVERYLIEIAKNYNVPYEPDSVVMVPPQECERMGEALWEDHQRWLDSGREHVVKHPSLVLRFQT
On to B8, for which the “Dependence” value was “increases that were dependent on the amount of expression plasmid”. Also, the “Reporter activity corrected” value (25 ng/well expression plasmid) is on record as 2.0. For the same molecule, for the setting “50 ng/well expression plasmid”, the “Reporter activity corrected” value was found to be 2.6. In addition, the “Reporter activity corrected” value (100 ng/well expression plasmid) amounted to 4.2.

B9: 68 (protein, listed as Homo sapiens)
chain: MLKEEQEVAMLGVPHNPAPPMSTVIHIRSETSVPDHVVWSLFNTLSMNTCCLGFIAFAYSVKSRDRKMVGDVTGAQAYASTAKCLNIWALILGIFMTILLIIIPVLVVQAQR
For the molecule B9, the “Dependence” value is reported as “increases that were dependent on the amount of expression plasmid”. Further, the “Reporter activity corrected” value (25 ng/well expression plasmid) is given as 2.3. The “Reporter activity corrected” value (50 ng/well expression plasmid) came out at 4.0. For the setting “100 ng/well expression plasmid”, the “Reporter activity corrected” value worked out at 7.3.
